Measurements: patent US9249224B2 (RINAT NEUROSCIENCE CORP., priority 2011, dated 2016)
Where “and” joins values, the source holds several entries; their conditions need not be identical. Identical values can stand only once.

Test system: cyno GHR
Test: Biacore kinetics and affinity, captured IgG, cyno GHR analyte, 25° C.
Type: binding, cynomolgus monkey
Conditions: IgG immobilized by capture
Method: The affinity of a mouse anti-GHR antibody, Ab13, to human and cyno GHR was measured on a Biacore™ 2000 biosensor (GE Lifesciences™, Piscataway N.J.). An anti-mouse Ig sensor surface was prepared using a Biacore™ CM5 chip and reagents from the Biacore™ mouse antibody capture kit (GE Lifesciences™, Catalog# BR-1008-38), using instructions provided by the manufacturer.
The kinetics assay was run using a kinetic titration methodology as described in Karlsson et al., 2006, Anal. Biochem 349, 136-147. The mouse antibody, Ab13, was captured onto downstream flow cells at 0.5 μg/mL at a flow rate of 5 μL/min for 1 minute, 2 minutes and 4 minutes on flow cells 2, 3 and 4 respectively. Flow cell 1 was used as a reference surface. […]
The affinities of a humanized GHR antibody, SS1, and a chimeric molecule comprising the Fab of Ab13 fused to a human Fc domain (“Ab13-hFc”) to human and cyno GHR was measured on a Biacore™ 2000 biosensor (GE Lifesciences™ Piscataway N.J.). […]
The kinetics assay was run using a methodology with varying dissociation times as described in Katsamba et al., 2006, Anal. Biochem 352, 208-221. […] After the analyte injection, dissociation was monitored for 30 minutes (for the 400 nM GHR cycle) or 30 seconds (all other cycles) followed by regeneration of all flow cells with two 30-second injections of 75 mM phosphoric acid. […]

cyno GHR, sequence (as listed by the source): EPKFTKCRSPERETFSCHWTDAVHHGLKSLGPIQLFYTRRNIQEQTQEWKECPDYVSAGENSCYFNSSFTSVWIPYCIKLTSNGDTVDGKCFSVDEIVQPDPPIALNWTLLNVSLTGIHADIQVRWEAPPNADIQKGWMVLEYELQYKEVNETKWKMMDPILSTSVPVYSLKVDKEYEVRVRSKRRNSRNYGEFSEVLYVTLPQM

B1: SS1: humanized GHR antagonist antibody; VL SEQ ID NO: 7, VH SEQ ID NO: 8; hIgG2Δa heavy chain SEQ ID NO: 134, light chain SEQ ID NO: 135 (antibody)
heavy: EVQLVESGGGLVKPGGSLRLSCAASGFTFSDAWMDWVRQAPGKGLEWVAEIRSKANYHATYYAESVKGRFTISRDDSKNTLYLQMNSLKTEDTAVYYCTLIRDYWGQGTLVTVSSASTKGPSVFPLAPCSRSTSESTAALGCLVKDYFPEPVTVSWNSGALTSGVHTFPAVLQSSGLYSLSSVVTVPSSNFGTQTYTCNVDHKPSNTKVDKTVERKCCVECPPCPAPPVAGPSVFLFPPKPKDTLMISRTPEVTCVVVDVSHEDPEVQFNWYVDGVEVHNAKTKPREEQFNSTFRVVSVLTVVHQDWLNGKEYKCKVSNKGLPSSIEKTISKTKGQPREPQVYTLPPSREEMTKNQVSLTCLVKGFYPSDIAVEWESNGQPENNYKTTPPMLDSDGSFFLYSKLTVDKSRWQQGNVFSCSVMHEALHNHYTQKSLSLSPGK
light: EIVLTQSPGTLSLSPGERATLSCTATSSVSSSYLNWYQQKPGQAPRLLIYSTSNLASGIPDRFSGSGSGTDFTLTISRLEPEDFAVYYCHQYHRSTPTFGGGTKVEIKRTVAAPSVFIFPPSDEQLKSGTASVVCLLNNFYPREAKVQWKVDNALQSGNSQESVTEQDSKDSTYSLSSTLTLSKADYEKHKVYACEVTHQGLSSPVTKSFNRGEC
modifications: Humanized and/or affinity matured antibody sequence
ka: 89000 M⁻¹ s⁻¹ and 81000 M⁻¹ s⁻¹ | kd: 0.00011 s⁻¹ and 0.0001 s⁻¹
